In assay [1] the target is Y0317-570 Fab. The experiment in a line: BIAcore, 1:1 Langmuir model: Herceptin dissociating from Y0317-570 Fab held on immobilized VEGF. For orientation: SPR reads the build-up and loss of mass on a sensor chip optically.
The target of assay [2] is Y0317-570 Fab. The experiment in a line: BIAcore; estimated from the observed koff with an assumed kon.

pKd: −log10 of the molar value.

In turn, “4D5-IgG, also known as Herceptin® (antibody)” registered a dissociation half-life (t1/2) in the assay with Y0317-570 Fab [1] of 8.5 min. Moreover, the pKd with Y0317-570 Fab [2] was 6.52 to 7.52.

As usually defined, the pKd is the Kd on a negative log10 scale, so that one unit is a factor of ten.

The values above are taken from patent publication EP1757701A1.
